In paper PMC10973816:

B1: mGluR6 (metabotropic glutamate receptor 6): N290Q (protein)
parent chain: MGRLRVLLLWLAWWLSQAGIAHGAGSVRLAGGLTLGGLFPVHARGAAGRACGTLKKEQGVHRLEAMLYALDRINADPELLPGVRLGARLLDTCSRDTYALEQALSFVQALIRGRGDGEEASVRCPGGVPPLRAAPPERVVAVVGASASSVSIMVANVLRLFAIPQISYASTAPELSDSTRYDFFSRVVPPDSYQAQAMVDIVRALGWNYVSTLASEGNYGESGVEAFVQISREAGGVCIAQSIKIPREPKPGEFHKVIRRLMETPNARGIIIFANEDDIRRVLEATRQANLTGHFLWVGSDSWGSKISPILNLEEEAVGAITILPKRASIDGFDQYFMTRSLENNRRNIWFAEFWEENFNCKLTSSGGQSDDSTRKCTGEERIGQDSTYEQEGKVQFVIDAVYAIAHALHSMHQALCPGHTGLCPAMEPTDGRTLLHYIRAVRFNGSAGTPVMFNENGDAPGRYDIFQYQATNGSASSGGYQAVGQWAEALRLDMEALQWSGDPHEVPPSQCSLPCGPGERKKMVKGVPCCWHCEACDGYRFQVDEFTCEACPGHMRPTPNHTGCRPTPVVRLTWSSPWAALPLLLAVLGIMATTTIIATFMRHNDTPIVRASGRELSYVLLTGIFLIYAITFLMVAEPCAAVCASRRLLLGLGTTLSYSALLTKTNRIYRIFEQGKRSVTPPPFISPTSQLVITFGLTSLQVVGVIAWLGAQPPHSVIDYEEQRTVDPEQARGVLKCDMSDLSLIGCLGYSLLLMVTCTVYAIKARGVPETFNEAKPIGFTMYTTCIIWLAFVPIFFGTAQSAEKIYIQTTTLTVSLSLSASVSLGMLYVPKTYVILFHPEQNVQKRKRSLKKTSTMAAPPKSENSEDAK
B2: mGluR6 (metabotropic glutamate receptor 6): 3Q!445 (protein)
parent chain: B1 parent chain
B3: mGluR6 (metabotropic glutamate receptor 6): 3Q!561 (protein)
parent chain: B1 parent chain
B4: mGluR6 (metabotropic glutamate receptor 6): N445Q (protein)
parent chain: B1 parent chain
B5: mGluR6 (metabotropic glutamate receptor 6): 4Q (protein)
parent chain: B1 parent chain
B6: mGluR6 (metabotropic glutamate receptor 6): N561Q (protein)
parent chain: B1 parent chain
B7: mGluR6 (metabotropic glutamate receptor 6): N473Q (protein)
parent chain: B1 parent chain
B8: mGluR6 (metabotropic glutamate receptor 6): triple mutant (only N473 left) (protein)
parent chain: B1 parent chain
B9: mGluR6 (metabotropic glutamate receptor 6): triple mutant (only N290 left) (protein)
parent chain: B1 parent chain

Assay: EGFP in TRPM1-positive OPL puncta, electroporated mouse retina
Conditions: glycan lost; control: wild type mGluR6-EGFP
In the case of B1, the localisation_or_trafficking is reported as “no change”.
With B2 the localisation_or_trafficking was “no change”.
With B3 the localisation_or_trafficking was “abolishes”.
For B4, the localisation_or_trafficking was “no change”.
In the case of B5, the localisation_or_trafficking is reported as “abolishes”.
In the case of B6, the localisation_or_trafficking is reported as “no change”.
In the case of B7, the localisation_or_trafficking is reported as “no change”.

Assay: Total EGFP fluorescence, HEK
Conditions: glycan lost; control: wild type mGluR6-EGFP
For B8, the expression_or_secretion was “decreases”.
In the case of B2, the expression_or_secretion is reported as “decreases”.
With B3 the expression_or_secretion was “decreases, 3Q!561 had the highest expression among the triple mutants”.
For B5, the expression_or_secretion was “decreases”.
With B6 the expression_or_secretion was “decreases”.
In the case of B9, the expression_or_secretion is reported as “decreases”.

Assay: Permeabilised mAb-1438 immunolabelling, HEK, untagged
Conditions: glycan lost; control: wild type
With B8 the expression_or_secretion was “decreases”.
In the case of B2, the expression_or_secretion is reported as “decreases”.
With B3 the expression_or_secretion was “decreases”.
With B5 the expression_or_secretion was “decreases”.
With B9 the expression_or_secretion was “decreases”.

Assay: Non-permeabilised mAb-1438 immunolabelling, HEK, untagged
Conditions: glycan lost; control: wild type
With B1 the localisation_or_trafficking was “no change”.
In the case of B8, the localisation_or_trafficking is reported as “decreases”.
With B2 the localisation_or_trafficking was “decreases”.
With B3 the localisation_or_trafficking was “decreases”.
For B4, the localisation_or_trafficking was “decreases”.
In the case of B5, the localisation_or_trafficking is reported as “abolishes”.
For B6, the localisation_or_trafficking was “decreases”.
For B9, the localisation_or_trafficking was “decreases”.
For B7, the localisation_or_trafficking was “decreases”.

Assay: Non-permeabilised mAb-1438 immunolabelling, HEK, mGluR6-EGFP
Conditions: glycan lost; control: wild type mGluR6-EGFP
For B4, the localisation_or_trafficking was “decreases”.
With B6 the localisation_or_trafficking was “decreases”.
